The series relates to MS2 coat protein. Briefly: apparent KD of MS2 coat protein; designed switch direction (-1 OFF switch, 1 ON switch): 1; higher = weaker reporter binding. The method in brief: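 Each step of the titration lasted 0.8–1.5 h at the lowest concentration and 10–20 min at the highest. The protein, SNAP-549-labelled MS2 coat protein, went from 0.7 or 1.5 nM doubling to 3 µM over RNA switches transcribed on Illumina chips by stalled E. coli RNA polymerase. Normalised cluster fluorescence was curve-fitted, and the per-design median over clusters is given as apparent KD.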

Where [1] appears, read: input ligand: microRNA oligo, concentration not stated.
The mark [2] stands for this setting: Eterna round: R95, input ligand: FMN 200 uM.
Setting [3] is: Eterna round: R95, input ligand: microRNA oligo, concentration not stated.
The mark [4] stands for this setting: Eterna round: R95, input ligand: none.

For the sequence “AGAACAUGACGAGGAUAUGGAACAUGAGGAUCACCCAUGUAUGUUCCAUAACGCGAAUAAAGAAUCCAGAAGGCGUCGUGAAGA [Mat - Same State NG 2 - JL mod - D32] (Eterna round: R96, puzzle: Same State NG 2)”, the “apparent KD of MS2 coat protein” value by setting is: (input ligand: FMN 200 uM) 34.5 nM; under setting [1], 116 nM; (input ligand: none) 147 nM.

As to “AGAAGACAUGAGGAUCACCCAUGUACCUCAUAAGGAGAGAGCGAGGAUAUGUAGAGAGAGAGGGAACAGAAGGUGUGAGAGGAA [Default title] (Eterna round: R96, puzzle: Same State NG 3)”, the “apparent KD of MS2 coat protein” value was determined as 218 nM (input ligand: FMN 200 uM), 99.4 nM under setting [1] and 161 nM (input ligand: none).

“AGAGAACAUGAGGAUCACCCAUGUGGGAGAAACAUAGGAUAUAGGAGAGAGAGGGAGGAGCUAGAAGGAUGAUGGA [JR_SS1_Sub082] (puzzle: Same State 1)”: the “apparent KD of MS2 coat protein” value worked out at 80.5 nM under setting [2], 91.1 nM under setting [3] and 105 nM under setting [4].

In the case of “AGAGGAAGGGCAGGAUAUACGACGGAGGACGAGGUAGAAGGGUCCAUGUGAUAACAUGAGGAUCACCCAUGUACCGCGCGACGA [AK SSNG1-V2-18] (Eterna round: R96, puzzle: Same State NG 1)”, the “apparent KD of MS2 coat protein” value reads like this: (input ligand: FMN 200 uM) 147 nM; under setting [1], 43.1 nM; (input ligand: none) 832 nM.

Turning to “AGAGGAGGAGCAGGAUAUUCGAAGAAGGACGUGGAAGAAGGGUUCAUGCGAUGACAUGAGGAUCACCCAUGUACCGCGCGAGGA [AK SSNG1-V2-12] (Eterna round: R96, puzzle: Same State NG 1)”, the “apparent KD of MS2 coat protein” value is, setting by setting: (input ligand: FMN 200 uM) 63.4 nM; under setting [1], 42.6 nM; (input ligand: none) 69 nM.

For the sequence “AGAGUGUAUCCACAGGAUAUGCGAGCCGACACAUGAGGAUCACCCAUGUAGUCCUAAAGGGCUGAGCAGAAGGGUGGUAAGGCUC [Xelear] (puzzle: Same State 2)”, the “apparent KD of MS2 coat protein” value is, setting by setting: under setting [2], 31.7 nM; under setting [3], 169 nM; under setting [4], 285 nM.

Turning to “AGAUAGUGUGGAAAGGAUAUACGGUUGAGGACAUGAGGAUCACCCAUGUAGUAGAGGAAGGAAGGGUAGAAGGUUCAGGAUUGAU [JR_SS2_Sub018] (puzzle: Same State 2)”, the “apparent KD of MS2 coat protein” value is, setting by setting: under setting [2], 70.2 nM; under setting [3], 43.1 nM; under setting [4], 50.4 nM.

For “AGAUCAUGACGAGGAUAUCCGACAUGAGGAUCACCCAUGUAUGUCGGAGGACGAAUACGUCCAAAGGAGAAGGCGUCGUGGUCA [Mat - Same State NG 2 - JL mod - D38] (Eterna round: R96, puzzle: Same State NG 2)”, the “apparent KD of MS2 coat protein” value is, setting by setting: (input ligand: FMN 200 uM) 25.2 nM; under setting [1], 62.9 nM; (input ligand: none) 85.4 nM.

Take “AGAUCAUGACGAGGAUAUGGUACAUGAGGAUCACCCAUGUAUGUACUAUAACCCGUAUGAGGAAUCCAGAAGGCGUCGUGGUCA [JL SSNG2 1.17] (Eterna round: R96, puzzle: Same State NG 2)”: the “apparent KD of MS2 coat protein” value by setting is: (input ligand: FMN 200 uM) 23.8 nM; under setting [1], 71.8 nM; (input ligand: none) 85.9 nM.

Consider “AGCCGAAGCACAGGAUAUACAUGUAUACAUGAGGAUCACCCAUGUAGCAACACGUGGUAGUGAUUGUAGAAGGGUGCUCGGCGC [Omei SS(NG)2 Cv14] (Eterna round: R96, puzzle: Same State NG 2)”, for which the “apparent KD of MS2 coat protein” value by setting is: (input ligand: FMN 200 uM) 21.3 nM; under setting [1], 16 nM; (input ligand: none) 25.3 nM.

Consider “AGCCGAGACGCAGGAUAUAGAUAUCUACAUGAGGAUCACCCAUGUAGCAACACGUGGUAGUGAUUCUAGAAGGGUGCUCGGCGC [Omei SS(NG)2 Cv7] (Eterna round: R96, puzzle: Same State NG 2)”, for which the “apparent KD of MS2 coat protein” value (input ligand: FMN 200 uM) was found to be 44.9 nM, the “apparent KD of MS2 coat protein” value under setting [1] amounted to 322 nM and the “apparent KD of MS2 coat protein” value (input ligand: none) was found to be 504 nM.

With “AGCCGAGACUGAGGAUAUUUAAAUCUACAUGAGGAUCACCCAUGUAACAACACGUGGUAGUGAUUGAAGAAGGCGGCUCGGCGC [Omei SS(NG)2 Cv2] (Eterna round: R96, puzzle: Same State NG 2)”, the “apparent KD of MS2 coat protein” value came to 177 nM (input ligand: FMN 200 uM), 406 nM under setting [1] and 404 nM (input ligand: none).

Regarding “AGCCGAGACUGAGGAUAUUUUAAUCUACAUGAGGAUCACCCAUGUAACAACACGUGGUAUUGAUAGAAGAAGGCGGCUCGGCGC [Omei SS(NG)2 C] (Eterna round: R96, puzzle: Same State NG 2)”, the “apparent KD of MS2 coat protein” value runs as follows: (input ligand: FMN 200 uM) 24.3 nM; under setting [1], 50.4 nM; (input ligand: none) 64 nM.

For “AGCGCGGUCUCGCAGGAUAUCCACAAUCCUACAUGAGGAUCACCCAUGUCGCUGCAGGAUAUUAGGGAGAAGGGUGAUGCCGCGC [Riorge] (puzzle: Same State 2)”, the “apparent KD of MS2 coat protein” value under setting [3] worked out at 25.2 nM.

As to “AGCUAGGUGGCAGGAUAUGGGCACACCUACAUGAGGAUCACCCAUGUCUAAAGGUUGCAAAAGGACCAGAAGGGCCACGCUAGC [Onzaislege] (Eterna round: R96, puzzle: Same State NG 2)”, the “apparent KD of MS2 coat protein” value came to 19.2 nM (input ligand: FMN 200 uM), 82.7 nM under setting [1] and 178 nM (input ligand: none).

“AGCUAGUACCAAGGAUAUACGAACAUGAGGAUCACCCAUGUAUACAUGGUUUAAUGAGACUACAUGUAGAAGGUGGUACUAGCA [SameState NG2 #12] (Eterna round: R96, puzzle: Same State NG 2)”: the “apparent KD of MS2 coat protein” value was 387 nM (input ligand: FMN 200 uM), 338 nM under setting [1] and 538 nM (input ligand: none).

For “AGCUAGUACCGAGGAUAUACAUACAUGAGGAUCACCCAUGUAUACAUGAAAUAAUGAGACUACAUGUAGAAGGCGGUACUAGCA [Mat - Same State NG 2 - JL mod - D45] (Eterna round: R96, puzzle: Same State NG 2)”, the “apparent KD of MS2 coat protein” value is, setting by setting: (input ligand: FMN 200 uM) 16.9 nM; under setting [1], 43.5 nM; (input ligand: none) 63.4 nM.

On to “AGCUAGUACCGAGGAUAUACGAACAUGAGGAUCACCCAUGUAUACAUGGUUUAAUGAGACUACAUGUAGAAGGCGGUACUAGCA [SameState NG2 #11] (Eterna round: R96, puzzle: Same State NG 2)”, for which the “apparent KD of MS2 coat protein” value reads like this: (input ligand: FMN 200 uM) 1110 nM; under setting [1], 281 nM; (input ligand: none) 624 nM.

With “AGCUAGUACGAAGGAUAUACAAACAUGAGGAUCACCCAUGUAUACAUGGUUUGUUGUGACUACAUGUAGAAGGUCGUACUAGCA [SameState NG2 #16] (Eterna round: R96, puzzle: Same State NG 2)”, the “apparent KD of MS2 coat protein” value runs as follows: (input ligand: FMN 200 uM) 362 nM; under setting [1], 773 nM; (input ligand: none) 987 nM.

As to “AGCUAUCGAAAACGAUAGCAAAAGCAUGUACAUGAGGAUCACCCAUGUCAUGUACAGGCUUUUUGCUCGUCUUAAAA [Zipper 23 - 8] (puzzle: Sensor for hsa-mir-208a)”, the “apparent KD of MS2 coat protein” value under setting [2] came to 26.4 nM, the “apparent KD of MS2 coat protein” value under setting [3] turned out to be 18.3 nM and the “apparent KD of MS2 coat protein” value under setting [4] worked out at 124 nM.

As to “AGCUAUCGAAAACGAUAGCAAAAGCAUGUACAUGAGGAUCACCCAUGUCGUGUACAAGCUUUUUGCUCGUCUUAAAA [Zipper 23 - 5] (puzzle: Sensor for hsa-mir-208a)”, the “apparent KD of MS2 coat protein” value reads like this: under setting [2], 522 nM; under setting [3], 13.9 nM; under setting [4], 534 nM.

On to “AGCUAUCGCGUACGAUAGCUGAAGCGUGUACAUGAGGAUCACCCAUGUCAUGUACAAGCUUUUUGCUCGUCUUAUUG [JL-shm-2.28 JL mod] (puzzle: Sensor for hsa-mir-208a)”, for which the “apparent KD of MS2 coat protein” value stood at 249 nM under setting [2], 18.2 nM under setting [3] and 296 nM under setting [4].

Turning to “AGCUAUGGAAAACUAUAGCAAAAGUAUGUACAUGAGGAUCACCCAUGUCAUGUACAAGCUUUUUGCUCGUCUUAAAA [ak 6 mod of one Eli's designs.] (puzzle: Sensor for hsa-mir-208a)”, the “apparent KD of MS2 coat protein” value runs as follows: under setting [2], 201 nM; under setting [3], 18.6 nM; under setting [4], 189 nM.

“AGCUAUUAAUCAGGAUAUAGUGACAUGAGGAUCACCCAUGUAUUGAUGAUUAAAUGUGGUCACUACUAGAAGGGAUUACUAACA [SameState NG2 #49] (Eterna round: R96, puzzle: Same State NG 2)”: the “apparent KD of MS2 coat protein” value reads like this: (input ligand: FMN 200 uM) 37 nM; under setting [1], 51.4 nM; (input ligand: none) 67.1 nM.

Take “AGCUAUUAAUCAGGAUAUGGUGACAUGAGGAUCACCCAUGUAUUGAUGAUUAAAUGUGGUCACUACCAGAAGGGAUUACUAACA [SameState NG2 #50] (Eterna round: R96, puzzle: Same State NG 2)”: the “apparent KD of MS2 coat protein” value came to 34.2 nM (input ligand: FMN 200 uM), 221 nM under setting [1] and 260 nM (input ligand: none).

Take “AGCUUUUAAUUAGGAUAUGGUCACAUGAGGAUCACCCAUGUAACGAUGAUAUAAUGUGGUCAAGACUAGAAGGGAUUGCUAACA [SameState NG2 #68] (Eterna round: R96, puzzle: Same State NG 2)”: the “apparent KD of MS2 coat protein” value reads like this: (input ligand: FMN 200 uM) 589 nM; under setting [1], 357 nM; (input ligand: none) 355 nM.

With “AGGAAACAUGAGGAUCACCCAUGUAAAAAAGUGGGAGGAUAUACUAGAAGAAACAAAAUAGUAGAAGGCCUAAAAA [75%, Ex sub1, 32] (Eterna round: R96, puzzle: Same State 1)”, the “apparent KD of MS2 coat protein” value was found to be 19.1 nM (input ligand: FMN 200 uM), 37.7 nM under setting [1] and 42.3 nM (input ligand: none).
